Test results published in doi:10.1101/2023.09.12.557426 (bioRxiv, 2023).
Each block holds one binder with its values, some of them ahead of it.

Key:
[1] = biological target: hNup35(173-248, the RRM domain) (human, UniProt Q8NFH5); assay: crystal structure
[2] = biological target: human Nup35 in NPCs of HeLa cells (Homo sapiens (HeLa), UniProt Q8NFH5); assay: immunostaining of cells or tissue
[3] = biological target: Xenopus Nup35 from egg extract, in newly assembled NPCs (Xenopus laevis, UniProt I1VEB0); assay: immunostaining of cells or tissue
[4] = biological target: His14-NEDD8 tagged APD of xtNup98(715-866) (Xenopus tropicalis, UniProt A0A1B8XZT4); assay: pull-down
[5] = biological target: T1, human Nup98 of HeLa cells (human (endogenous in HeLa), UniProt P52948); assay: pull-down
[6] = biological target: T2, Xenopus Nup98 from egg extract (Xenopus laevis, endogenous in egg …, UniProt A0A8J1MFV7); assay: pull-down
xlNup93(168-820) = xlNup93(168-820) (Xenopus laevis, UniProt Q7ZX96); assay: cryo-EM structure
[7] = biological target: T1, human Nup98 of HeLa cells; assay: immunostaining of cells or tissue
[8] = biological target: T2, Xenopus Nup98 from egg extract; assay: immunostaining of cells or tissue
crystal structure = biological target: the molecule itself; assay: crystal structure
[9] = biological target: Xenopus Nup93, target protein of the BLI measurement (Xenopus, UniProt Q7ZX96); assay: BLI
[10] = biological target: Xenopus Nup93 from egg extract (Xenopus laevis (endogenous in egg …, UniProt Q7ZX96)); assay: pull-down
[11] = biological target: human Nup93 from HeLa lysate (human (endogenous in HeLa), UniProt Q8N1F7); assay: pull-down
Sequence of human Nup93 from HeLa lysate (Q8N1F7 whole entry): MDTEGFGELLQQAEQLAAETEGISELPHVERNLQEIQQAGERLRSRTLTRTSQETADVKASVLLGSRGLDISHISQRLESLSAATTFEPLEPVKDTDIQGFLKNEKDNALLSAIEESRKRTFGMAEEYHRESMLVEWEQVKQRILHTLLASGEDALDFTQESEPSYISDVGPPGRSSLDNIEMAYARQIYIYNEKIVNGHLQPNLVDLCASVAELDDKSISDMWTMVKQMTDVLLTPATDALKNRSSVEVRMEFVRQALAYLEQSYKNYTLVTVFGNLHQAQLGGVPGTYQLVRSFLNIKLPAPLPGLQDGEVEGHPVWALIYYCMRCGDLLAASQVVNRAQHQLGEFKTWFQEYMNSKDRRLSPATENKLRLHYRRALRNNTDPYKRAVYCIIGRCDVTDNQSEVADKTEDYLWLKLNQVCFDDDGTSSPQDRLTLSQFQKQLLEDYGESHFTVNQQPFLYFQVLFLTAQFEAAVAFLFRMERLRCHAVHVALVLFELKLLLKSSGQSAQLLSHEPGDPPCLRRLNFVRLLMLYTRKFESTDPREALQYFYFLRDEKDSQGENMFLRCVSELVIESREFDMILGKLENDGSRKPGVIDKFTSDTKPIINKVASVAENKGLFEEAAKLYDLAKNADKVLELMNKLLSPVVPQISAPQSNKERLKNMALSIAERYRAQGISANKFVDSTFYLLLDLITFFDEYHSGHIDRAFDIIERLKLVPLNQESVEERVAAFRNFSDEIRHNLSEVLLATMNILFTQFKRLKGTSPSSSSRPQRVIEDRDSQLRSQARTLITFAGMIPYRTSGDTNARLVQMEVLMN

Sequence of xlNup93(168-820) (Q7ZX96 168-820): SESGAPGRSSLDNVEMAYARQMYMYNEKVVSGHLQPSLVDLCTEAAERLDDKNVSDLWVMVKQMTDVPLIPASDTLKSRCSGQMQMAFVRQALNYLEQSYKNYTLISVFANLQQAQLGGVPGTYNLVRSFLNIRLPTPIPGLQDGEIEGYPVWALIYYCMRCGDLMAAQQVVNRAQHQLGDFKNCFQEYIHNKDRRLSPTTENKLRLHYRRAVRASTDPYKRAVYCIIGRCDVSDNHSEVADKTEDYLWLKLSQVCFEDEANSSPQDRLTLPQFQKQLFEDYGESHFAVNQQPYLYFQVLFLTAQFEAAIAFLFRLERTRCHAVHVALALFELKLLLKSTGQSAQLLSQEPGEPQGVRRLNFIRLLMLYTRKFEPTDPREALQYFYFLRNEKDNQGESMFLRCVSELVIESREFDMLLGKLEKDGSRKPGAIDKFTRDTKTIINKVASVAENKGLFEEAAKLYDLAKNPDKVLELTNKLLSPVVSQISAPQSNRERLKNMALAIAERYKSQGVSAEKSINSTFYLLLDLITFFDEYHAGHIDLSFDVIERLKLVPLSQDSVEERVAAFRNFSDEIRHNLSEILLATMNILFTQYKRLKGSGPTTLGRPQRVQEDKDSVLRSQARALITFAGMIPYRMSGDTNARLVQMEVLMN
T1 sequence (P52948 1-880): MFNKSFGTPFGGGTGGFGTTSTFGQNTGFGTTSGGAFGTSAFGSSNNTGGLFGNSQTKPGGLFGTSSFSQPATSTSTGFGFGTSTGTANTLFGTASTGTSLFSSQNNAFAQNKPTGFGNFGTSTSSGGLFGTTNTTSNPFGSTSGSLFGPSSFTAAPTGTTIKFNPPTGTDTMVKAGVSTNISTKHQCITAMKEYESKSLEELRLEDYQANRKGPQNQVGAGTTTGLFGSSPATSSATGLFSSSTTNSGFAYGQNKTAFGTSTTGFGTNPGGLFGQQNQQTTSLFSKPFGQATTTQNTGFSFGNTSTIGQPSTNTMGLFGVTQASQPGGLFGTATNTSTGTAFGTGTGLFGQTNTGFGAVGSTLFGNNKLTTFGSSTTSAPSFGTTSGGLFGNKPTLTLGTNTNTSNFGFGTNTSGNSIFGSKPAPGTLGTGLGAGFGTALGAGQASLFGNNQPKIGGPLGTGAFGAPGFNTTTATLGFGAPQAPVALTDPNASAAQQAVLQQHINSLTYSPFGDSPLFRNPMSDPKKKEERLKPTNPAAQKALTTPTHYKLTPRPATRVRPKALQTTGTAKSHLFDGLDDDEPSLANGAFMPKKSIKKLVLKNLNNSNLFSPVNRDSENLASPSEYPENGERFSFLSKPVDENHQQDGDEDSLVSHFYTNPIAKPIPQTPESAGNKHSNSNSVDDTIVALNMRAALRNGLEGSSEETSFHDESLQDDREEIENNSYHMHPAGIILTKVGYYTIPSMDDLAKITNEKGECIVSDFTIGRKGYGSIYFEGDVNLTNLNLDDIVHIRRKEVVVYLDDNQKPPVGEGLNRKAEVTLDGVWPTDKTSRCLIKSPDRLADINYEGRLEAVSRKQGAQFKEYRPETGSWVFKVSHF
Sequence of Xenopus Nup93 from egg extract (Xenopus laevis (Q7ZX96 whole entry): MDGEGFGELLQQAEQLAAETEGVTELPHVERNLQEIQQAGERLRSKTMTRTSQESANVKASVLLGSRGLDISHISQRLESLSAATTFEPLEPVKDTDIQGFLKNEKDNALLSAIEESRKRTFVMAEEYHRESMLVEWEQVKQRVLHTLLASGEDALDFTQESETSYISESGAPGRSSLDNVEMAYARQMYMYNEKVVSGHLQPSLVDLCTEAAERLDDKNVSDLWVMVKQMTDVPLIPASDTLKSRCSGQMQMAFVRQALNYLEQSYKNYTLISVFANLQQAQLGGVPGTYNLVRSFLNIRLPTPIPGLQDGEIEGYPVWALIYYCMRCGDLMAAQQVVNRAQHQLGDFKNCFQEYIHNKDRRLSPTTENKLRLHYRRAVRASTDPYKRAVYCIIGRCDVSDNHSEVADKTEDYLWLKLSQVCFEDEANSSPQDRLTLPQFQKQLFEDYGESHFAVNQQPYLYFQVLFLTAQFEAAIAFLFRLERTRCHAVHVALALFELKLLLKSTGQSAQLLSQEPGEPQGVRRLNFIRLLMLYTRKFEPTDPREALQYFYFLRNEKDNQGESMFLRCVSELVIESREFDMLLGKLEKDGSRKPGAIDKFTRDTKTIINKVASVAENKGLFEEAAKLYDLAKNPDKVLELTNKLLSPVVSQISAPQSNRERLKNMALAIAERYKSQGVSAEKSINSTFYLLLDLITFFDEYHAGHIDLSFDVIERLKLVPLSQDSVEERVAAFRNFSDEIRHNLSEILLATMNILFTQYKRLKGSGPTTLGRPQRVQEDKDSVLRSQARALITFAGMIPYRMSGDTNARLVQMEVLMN
Sequence of Xenopus Nup93, target protein of the BLI measurement (Q7ZX96 whole entry): as above
Sequence of human Nup35 in NPCs of HeLa cells (Q8NFH5 whole entry): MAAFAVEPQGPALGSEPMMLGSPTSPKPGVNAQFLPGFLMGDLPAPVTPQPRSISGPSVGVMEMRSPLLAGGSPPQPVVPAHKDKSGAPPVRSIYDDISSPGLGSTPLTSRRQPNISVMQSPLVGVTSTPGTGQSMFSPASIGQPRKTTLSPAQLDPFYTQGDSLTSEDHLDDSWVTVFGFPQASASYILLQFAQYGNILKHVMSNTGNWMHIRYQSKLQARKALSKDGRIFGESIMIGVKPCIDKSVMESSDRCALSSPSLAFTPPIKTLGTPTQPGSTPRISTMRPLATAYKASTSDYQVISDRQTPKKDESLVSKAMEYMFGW

binding result [1]: binds
B1: xhNup35-Nb1t (VHH)
VHH: QVQLVESGGGLVQAGGSLRLSCVGTGNISSAYTMAWYRQAAGKEREVVAGILNGGSTHYADSVKGRFTISRDNAKNTVYLQMNSLQPEDTGVYCCHVVIESTRFVYDHYWGQGTRVTVSS

binding result [2]: binds
binding result [3]: binds
B2: xhNup35-Nb1t, fluorophore-labelled (VHH)
VHH: B1 VHH

binding result [4]: binds
B3: xhNup98-Nb2i (VHH)
VHH: QVQLVESGGGLAKPGGSLRLSCVATGTFRSMEDVGWYRQAPGKDRELVAEITTLGKVTYADSVKGRFTISRDDAKNAVYLQMSDLKSEDTAVYYCNIEADQTKGIGYVVYPYWGQGTRVTVSS

binding result [5]: binds
binding result [6]: binds
B4: (biotin)-Avi-SUMO^Eu1-xhNup98-Nb2i (VHH)
VHH: B3 VHH

binding result (xlNup93(168-820)): binds
B5: xNup93-Nb2t (VHH)
VHH: DVQLVESGGGLVQPGGSLRLSCVASGFTFSRVGMGWVRQAPGKGLEWVSDINASGGTGYADSVKGRFAISRDNAKNTLYLQMNRLKPEDTAVYYCAKMMDTAMIEAGIIKPAGQGTQVTVSS

binding result [4]: binds
B6: xNup98-Nb1t (VHH)
VHH: QVQLVESGGGPVEAGGSLRLSCAASGRSFSNSVMAWFRQAPGKEREFLSVLNWSSGRTSIADSVKGRFTMSRDPAKITVYLQMNGLKPEDTAVYYCAASNRGSLYTLDNQNRYEDWGQGTQVTVSS

binding result [7]: no binding (tested: 35 nM)
binding result [8]: binds
B7: xNup98-Nb1t, fluorophore-labelled (VHH)
VHH: B6 VHH

B8: hNup35(173-248, the RRM domain) (domain or fragment)
chain: DSWVTVFGFPQASASYILLQFAQYGNILKHVMSNTGNWMHIRYQSKLQARKALSKDGRIFGESIMIGVKPCIDKSV
binding result (crystal structure): binds

binding result [9]: binds
B9: xhNup93-Nb4i, biotinylated at two ectopic cysteines (VHH)
VHH: QVQLVESGGGVVQTGDSLMLSCTVSGHTIDNWAMGWFRQTPRKQREFVAAIDKRGTGAIYGNSVKGRFTVSRDNAKNMVYLRMNSLKPEDTAVYFCAVDQLNAGLGDVSYDYDYWGQGTQVTVSS

binding result [10]: binds
binding result [11]: binds
B10: (biotin)-Avi-SUMO^Eu1-xhNup93-Nb4i (VHH)
VHH: B9 VHH

binding result (xlNup93(168-820)): binds
B11: xhNup93-Nb4i (VHH)
VHH: B9 VHH
